Substitutions are numbered along the chain they refer to.

What all share (test): BLI (Octet): GITR-Fc mutant on anti-human Fc sensor, ABP1 Fab in solution
(BLI is a label-free optical method that tracks binding on a fibre tip over time.)

For assay [1], the target named is T1, human GITR-Fc mutant C66D (human, UniProt Q9Y5U5 26-162).
T1 chain: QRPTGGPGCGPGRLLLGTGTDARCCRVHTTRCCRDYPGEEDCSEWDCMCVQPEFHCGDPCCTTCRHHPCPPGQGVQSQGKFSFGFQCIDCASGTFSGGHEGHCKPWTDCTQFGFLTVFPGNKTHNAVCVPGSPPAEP

The target of assay [2] is T2, human GITR-Fc mutant C67A (human, UniProt Q9Y5U5 26-162).
T2 chain: T1 chain with D41C, C42A

Assay [3] has as its target T3, human GITR-Fc mutant R59A (human, UniProt Q9Y5U5 26-162).
T3 chain: T1 chain with R34A, D41C

Assay [4] has as its target T4, human GITR-Fc mutant D60A (human, UniProt Q9Y5U5 26-162).
T4 chain: T1 chain with D35A, D41C

Assay [5] addresses T5, human GITR-Fc mutant E64A (human, UniProt Q9Y5U5 26-162).
T5 chain: T1 chain with E39A, D41C

In assay [6] the target is T6, human GITR-Fc mutant R56A (human, UniProt Q9Y5U5 26-162).
T6 chain: T1 chain with R31A, D41C

The target of assay [7] is T7, human GITR-Fc mutant C58A (human, UniProt Q9Y5U5 26-162).
T7 construct: Point mutation in the human GITR extracellular domain with an Fc tag
T7 chain: T1 chain with C33A, D41C

Assay [8] concerns the target T8, human GITR-Fc mutant P62A (human, UniProt Q9Y5U5 26-162).
T8 chain: T1 chain with P37A, D41C

For assay [9], the target named is T9, human GITR-Fc mutant Y61A (human, UniProt Q9Y5U5 26-162).
T9 chain: T1 chain with Y36A, D41C

In assay [10] the target is T10, human GITR-Fc mutant E65A (human, UniProt Q9Y5U5 26-162).
T10 chain: T1 chain with E40A, D41C

B1: ABP1 Fab (Fab, V domains shown)
VH: QVQLQESGPGLVKPSETLSLTCAVSGYSISSGLGWGWIRQPPGKGLEWIGGIYESGSTYYNPSLKSRVTISVDTSKNQFSLKLSSVTAADTAVYYCAHERVRGYGDYGGHHAFDIWGQGTMVTVSS
VL: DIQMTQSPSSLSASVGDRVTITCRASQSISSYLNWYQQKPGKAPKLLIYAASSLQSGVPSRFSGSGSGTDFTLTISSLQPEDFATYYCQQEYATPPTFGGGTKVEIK
Regarding B1, the binding result was “no binding” in assay [1]; “no binding” in [2]; “no binding” in assay [3]; “binds” in [4]; “no binding” in assay [5]; “binds” in assay [6]. Moreover, the binding result is given as “no binding” in assay [7], “binds” in [8], “no binding” in assay [9] and “binds” in assay [10].
